Earlier results as cited in paper PMC7484323 (Molecular pharmaceutics, 2020).

Test system: B16/F1 melanoma
Details: 2 h post-injection

For “hydrazinonicotinamide (HYNIC)-GGNle-CycMSHhex (sidechain bridge or staple) [99mTc(EDDA)-HYNIC-GGNle-CycMSHhex]”, the “kidney (renal) uptake” value is listed as 7.52 ± 0.96 %ID/g, the liver uptake is listed as 0.52 ± 0.05 %ID/g and the tumor uptake (B16/F1 melanoma) is listed as 14.14 ± 4.90 %ID/g.
